In series [1] the test system is mammals and other non-insect species. The following applies: in vivo; cited from earlier work.
The subject of series [2] is E0R (EcR-RXR fusion, 0 linker segments) (Drosophila melanogaster / Homo sapiens). The series is described as follows: EMSA. The following applies: 1 uM muristerone A, 23 C.
Series [3] has as its system E0U (EcR-Usp fusion, 0 linker segments) (Drosophila melanogaster). The series is described as follows: EMSA. As to conditions: nearly ligand-insensitive.
Series [4] relates to E5R (EcR-RXR fusion, 5 linker segments) (Drosophila melanogaster / Homo sapiens). The series is described as follows: EMSA. As to conditions: 1 uM muristerone A, 23 C.
The subject of series [5] is E5U (EcR-Usp fusion, 5 linker segments) (Drosophila melanogaster). The series is described as follows: EMSA. As to conditions: nearly ligand-insensitive; not significantly above E0U.
Series [6] deals with R0E (RXR-EcR fusion, 0 linker segments) (Homo sapiens / Drosophila melanogaster). The series is described as follows: EMSA. As to conditions: 1 uM muristerone A, 23 C.
Series [7] concerns R5E (RXR-EcR fusion, 5 linker segments) (Homo sapiens / Drosophila melanogaster). The series is described as follows: EMSA. As to conditions: 1 uM muristerone A, 23 C.
Series [8] deals with U0E (Usp-EcR fusion, 0 linker segments) (Drosophila melanogaster). The series is described as follows: EMSA. The following applies: barely detectable endodimer band; 1 uM muristerone A, 23 C.
Series [9] concerns the target T1, Drosophila melanogaster ecdysone receptor (monomeric) (Drosophila melanogaster, UniProt P34021 1-878).
T1 sequence (looked up): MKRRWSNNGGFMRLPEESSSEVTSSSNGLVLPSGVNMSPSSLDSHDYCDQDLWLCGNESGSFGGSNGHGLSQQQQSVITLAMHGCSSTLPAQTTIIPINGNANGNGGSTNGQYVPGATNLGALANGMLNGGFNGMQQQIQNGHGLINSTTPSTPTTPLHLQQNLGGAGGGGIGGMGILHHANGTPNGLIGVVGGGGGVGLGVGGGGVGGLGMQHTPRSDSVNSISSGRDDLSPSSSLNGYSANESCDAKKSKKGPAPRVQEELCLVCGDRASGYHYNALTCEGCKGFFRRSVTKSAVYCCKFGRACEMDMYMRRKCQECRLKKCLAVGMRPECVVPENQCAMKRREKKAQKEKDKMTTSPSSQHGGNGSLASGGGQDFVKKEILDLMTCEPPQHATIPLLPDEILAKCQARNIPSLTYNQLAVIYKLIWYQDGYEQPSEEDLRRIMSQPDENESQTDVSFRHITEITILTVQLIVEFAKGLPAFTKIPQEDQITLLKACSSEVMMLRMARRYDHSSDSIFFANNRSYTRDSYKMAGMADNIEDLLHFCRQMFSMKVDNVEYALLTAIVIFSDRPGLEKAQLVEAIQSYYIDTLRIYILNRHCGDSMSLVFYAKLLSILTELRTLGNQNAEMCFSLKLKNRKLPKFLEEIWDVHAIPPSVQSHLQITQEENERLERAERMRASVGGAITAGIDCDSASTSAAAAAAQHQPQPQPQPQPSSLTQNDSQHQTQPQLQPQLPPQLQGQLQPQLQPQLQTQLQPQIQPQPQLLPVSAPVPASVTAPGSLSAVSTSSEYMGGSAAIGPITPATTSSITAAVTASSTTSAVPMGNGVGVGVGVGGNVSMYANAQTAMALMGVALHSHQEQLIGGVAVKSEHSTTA
The series is described as follows: cell-based or functional assay.

The test system of series [10] is EcRE probe. The series is described as follows: Gel mobility shift analysis of EcRE probe binding by FDs. As to conditions: 1 μM murA vs vehicle, extracts of transfected 293 cells. How it is done: Preparation of the invention fusion protein FDs for gel shift analysis by transient transfection into 293 cells was as follows: 300 ng of individual receptor plasmids and 100 ng pCH110 internal control plasmid were cotransfected into 293 cells at 60% density in Costar 6-well plates. One well of each group was treated with 1 μM murA as ligand at the time of transfection. 40 hours later, extracts of transfected 293 cells were made by scraping the cells from a well into a low volume of phosphate buffered saline, pelleting the cells, resuspending them in 200 μl 5×gel shift buffer (Yao et al., supra 1992), and sonicating with a Kontes cell disrupter for three 10-sec. bursts at output level 30. The extracts were then centrifuged to clear the lysate and the protein was quantified. […]
Comparative gel mobility shift analyses of FDs with control in vitro translated receptor complexes were performed using double stranded EcRE probes and labeled by Klenow fill using ^32P-dCTP and cold dGAT by standard methods. […] Band volumes were quantified using laser scanning densitometry.
An autoradiogram of FDs and controls treated either with control vehicle or with 1 μM of murA as ligand was made with markers indicating endodimer FD or wild type receptor-binding complex band shifts. […] FIG. 2A is a graph that quantifies endodimer-sized band volumes obtained from the autoradiogram.

Series [11] has as its system E4-luc reporter plasmid in 293 cells. The series is described as follows: Transient transfection luciferase transactivation assay with E4-luc reporter. It counts as cell-based, human. The method, then:
For quantitative transactivation analysis, transfections were performed in triplicate in 24-well plates by calcium-phosphate co-precipitation with 100 ng of an individual receptor, the reporter plasmid E4-luc, and pCH110 (SV40-β-galactosidase) as an internal control. Briefly, the reporter plasmid, E4-luc, was constructed of 4-tandem EcREs inserted upstream of a thymidine kinase gene minimal promoter directing luciferase expression. […] 1 μM ligand was added at the time of transfection, and the cells were harvested for luciferase assay 40 hours later. Harvested cell extracts were split, and one part was analyzed in a luminometer for luciferase activity and the other part was analyzed for β-galactosidase activity using an orthonitrophenyl galactoside assay by standard methods. Luciferase levels were normalized to β-galactosidase values to correct for slight differences in transfection efficiency.

For `CCc1ccc(C(=O)NN(C(=O)c2cc(C)cc(C)c2)C(C)(C)C)cc1` [Tebufenozide, tebufenozide], the “toxicity to mammals and other non-insect species” value in series [1] was “very low toxicity”.

In the case of EcRE probe, the binding signal (fold increase with ligand) in series [2] worked out at 7; in series [4], 11; in [6], 4; in series [7], 5; in series [8] it was 2. Further, the binding signal (fold vs UNE constructs (average of ENU)) in [3] and in series [5] was 10 throughout.

B1: VP16-fused monomeric RXR (other)
chain: MDTKHFLPLDFSTQVNSSLTSPTGRGSMAAPSLHPSLGPGIGSPGQLHSPISTLSSPINGMGPPFSVISSPMGPHSMSVPTTPTLGFSTGSPQLSSPMNPVSSSEDIKPPLGLNGVLKVPAHPSGNMASFTKHICAICGDRSSGKHYGVYSCEGCKGFFKRTVRKDLTYTCRDNKDCLIDKRQRNRCQYCRYQKCLAMGMKREAVQEERQRGKDRNENEVESTSSANEDMPVERILEAELAVEPKTETYVEANMGLNPSSPNDPVTNICQAADKQLFTLVEWAKRIPHFSELPLDDQVILLRAGWNELLIASFSHRSIAVKDGILLATGLHVHRNSAHSAGVGAIFDRVLTELVSKMRDMQMDKTELGCLRAIVLFNPDSKGLSNPAEVEALREKVYASLEAYCKHKYPEQPGRFAKLLLRLPALRSIGLKCLEHLFFFKLIGDTPIDTFLMEMLEAPHQMT
Consider B1, for which the “E-mediated transactivation of the E4-luc luciferase reporter in 293 cells” value in [9] is over 5 fold.

B2: E5R: fusion protein: Drosophila EcR at amino terminus, 5 linker segments, RXR (protein)
chain: MKRRWSNNGGFMRLPEESSSEVTSSSNGLVLPSGVNMSPSSLDSHDYCDQDLWLCGNESGSFGGSNGHGLSQQQQSVITLAMHGCSSTLPAQTTIIPINGNANGNGGSTNGQYVPGATNLGALANGMLNGGFNGMQQQIQNGHGLINSTTPSTPTTPLHLQQNLGGAGGGGIGGMGILHHANGTPNGLIGVVGGGGGVGLGVGGGGVGGLGMQHTPRSDSVNSISSGRDDLSPSSSLNGYSANESCDAKKSKKGPAPRVQEELCLVCGDRASGYHYNALTCEGCKGFFRRSVTKSAVYCCKFGRACEMDMYMRRKCQECRLKKCLAVGMRPECVVPENQCAMKRREKKAQKEKDKMTTSPSSQHGGNGSLASGGGQDFVKKEILDLMTCEPPQHATIPLLPDEILAKCQARNIPSLTYNQLAVIYKLIWYQDGYEQPSEEDLRRIMSQPDENESQTDVSFRHITEITILTVQLIVEFAKGLPAFTKIPQEDQITLLKACSSEVMMLRMARRYDHSSDSIFFANNRSYTRDSYKMAGMADNIEDLLHFCRQMFSMKVDNVEYALLTAIVIFSDRPGLEKAQLVEAIQSYYIDTLRIYILNRHCGDSMSLVFYAKLLSILTELRTLGNQNAEMCFSLKLKNRKLPKFLEEIWDVHAIPPSVQSHLQITQEENERLERAERMRASVGGAITAGIDCDSASTSAAAAAAQHQPQPQPQPQPSSLTQNDSQHQTQPQLQPQLPPQLQGQLQPQLQPQLQTQLQPQIQPQPQLLPVSAPVPASVTAPGSLSAVSTSSEYMGGSAAIGPITPATTSSITAAVTASSTTSAVPMGNGVGVGVGVGGNVSMYANAQTAMALMGVALHSHQEQLIGGVAVKSEHSTTAGPTGPGPGGGSGGGSGTGPGGGSGGGSGTGPGGGSGGGSGTGPGGGSGGGSGTGPGGGSGGGSGTMDTKHFLPLDFSTQVNSSLTSPTGRGSMAAPSLHPSLGPGIGSPGQLHSPISTLSSPINGMGPPFSVISSPMGPHSMSVPTTPTLGFSTGSPQLSSPMNPVSSSEDIKPPLGLNGVLKVPAHPSGNMASFTKHICAICGDRSSGKHYGVYSCEGCKGFFKRTVRKDLTYTCRDNKDCLIDKRQRNRCQYCRYQKCLAMGMKREAVQEERQRGKDRNENEVESTSSANEDMPVERILEAELAVEPKTETYVEANMGLNPSSPNDPVTNICQAADKQLFTLVEWAKRIPHFSELPLDDQVILLRAGWNELLIASFSHRSIAVKDGILLATGLHVHRNSAHSAGVGAIFDRVLTELVSKMRDMQMDKTELGCLRAIVLFNPDSKGLSNPAEVEALREKVYASLEAYCKHKYPEQPGRFAKLLLRLPALRSIGLKCLEHLFFFKLIGDTPIDTFLMEMLEAPHQMT
For the molecule B2, the “relative-fold increase in response element binding (endodimer band) resulting from ligand treatment” value in [10] is 11 fold. Further, the “Rel. Ind. = relative induction of individual receptor groups” value in [11] (+ligand (1 μM murA) versus −ligand) was 8.4 fold. In addition, in series [11] (transiently co-transfected 293 cells, 1 μM murA, relative to E4-luc reporter only), the “+Lig/E4 = luciferase activity vs. reporter only with ligand” value is reported as 3.89. The “−Lig/E4 = luciferase activity vs. reporter only without ligand” value in series [11] (transiently co-transfected 293 cells, without ligand, relative to E4-luc reporter only) is given as 0.46.

The values above are taken from patent publication US7057015B1, “Hormone receptor functional dimers and methods of their use” (The Salk Institute for Biological Studies, priority 1999, dated 2006).
